Data taken from PMC8568656.

Molecular target: DOPAL-derived αS oligomers (αS incubated with 3,4-dihydroxyphenylacetaldehyde)
Experiment: SDS-PAGE of SEC fractions

“DOPAL-derived αS oligomers (αS incubated with 3,4-dihydroxyphenylacetaldehyde)” was tested, and the stoichiometry N was 2.
